Data published in US20090203610A1, “METHODS OF TREATING OBESITY OR DIABETES USING NT-4/5” (RINAT NEUROSCIENCE CORPORATION, priority 2004, published 2009).

Columns and labels:
[1] = system: db/db mice; assay: Heart and gastrocnemius muscle weight in db/db mice (Example 1); conditions: day 28; NT-4/5 20 mg/kg s.c., Rosiglitazone 3 mg/kg p.o.
Method: Test animals: 24 female 10-12 weeks old db/db mice (C57BL/Ks J Rj-db/db, Janvier, France), weighing in the target range of 40-50 g, were used in this study. These mice were housed in a temperature (19.5-24.5° C.) and relative humidity (45-65%) controlled room with a 12-hour light/dark cycle, with ad libitum access to filtered tap-water and irradiated pelleted laboratory chow (SAFE, France) throughout the study. Upon receipt at animal facilities, they were housed 4 per cage covered with filtered caps and at least a 5-day acclimation period was observed.
The mice were divided into three groups of 8 mice each (groups 1-3). Each group was treated with vehicle (PBS) subcutaneously (s.c.), 3 mg/kg Rosiglitazone orally (p.o.), or 20 mg/kg NT-4/5 subcutaneously (s.c.). From day 1 to day 5 (T1-T5) and then from day 8 to day 12 (T8-T12), the mice in groups 2 and 3 were dosed once daily for 5 consecutive days, with a volume of 10 ml/kg.
Heart weight and gastrocnemius weight were measured on day 28 for vehicle, Rosiglitazone, and NT-4/5 treated mice.

[2] = system: lean C57BL/6 mice; assay: Body weight, food intake, nonfasting blood glucose, triglyceride in normal lean C57BL/6 mice (Example 11); format: in vivo; conditions: for weight loss as compared to the vehicle control group: female C57BL/6 mice, day 2
Method: Test animals: Mice with normal diet were used in this study.
Administration of NT-4/5: NT-4/5 was produced as described in U.S. Pat. No. 6,184,360. The mice were divided into 5 groups of equivalent baseline body weight, food intake and nonfasting blood glucose level distribution (8 mice per group). Each group received 4 daily subcutaneous doses of vehicle, 1 mg/kg, 2 mg/kg, 5 mg/kg or 10 mg/kg of NT-4/5, respectively, from day 1 to day 4. Body weight and food intake were monitored on daily basis. The non-fasting blood glucose was measure as previously described once a week (day 1 and day 8).

[3] = system: NONcNZO-10 polygenic obese and diabetic mice; assay: Body weight and food intake in NONcNZO-10 mice (Example 3); format: in vivo
Source text: Test animals: 19 male NONcNZO-10 polygenic obese and diabetic mice from Jackson Laboratory (See Leiter et al., Diabetes 53 (Suppl. 1): S4-S11, 2004) at 9 weeks of age weighing in the range of 28-35 g were used in this study.
Administration of NT-4/5: NT-4/5 was obtained from Genentech Inc.
The mice were divided into 3 groups of equivalent body weight and baseline glucose distribution (6-7 mice per group). […] Seven days before starting the treatment (day −7), blood samples were collected from the mice as described previously for the determination of baseline levels of blood glucose and triglyceride. After the treatment started, blood samples were collected weekly to determine glucose and triglyceride levels as described in previous examples. Body weight and food intake were monitored 5 days a week through out the entire study.

[4] = system: db/db mice; assay: Co-administration of Mab 1241 with NT4/5 in db/db mice (Example 15); format: in vivo; conditions: NT4/5 2 mg/kg s.c. daily day 1-5; Mab 1241 5 mg/kg i.p. single on day 1
Source text: Test animals: 32 Leptin receptor mutant db/db mice (BSK.Cg-m+/+Leprdb) obtained from Jackson Laboratory were used for the study. The mice were divided into four groups of 8 animals each (groups 1-4), with homogeneous initial body weight and glycemia values based on a randomization table. The mice were housed one per cage.
Anti-NT4/5 and NT4/5: Both anti-NT4/5 monoclonal antibody Mab 1241 and human NT4/5 were obtained from Genentech. […] (data not shown).
Administration of Mab 1241 and NT4/5: On day one, mice in groups 1-4 were treated with vehicle (PBS) subcutanouesly (s.c.), 5 mg/kg Mab 1241 intraperitioneally (i.p.), 5 mg/kg Mab 1241 intraperitioneally (i.p.) plus 2 mg/kg NT4/5 subcutanouesly (s.c.), and 2 mg/kg NT4/5 subcutanouesly (s.c.), respectively. On day 2 through day 5, group 1 was treated with a daily dose of vehicle (PBS) subcutanouesly (s.c.). Groups 3 and 4 were treated with a daily dose of 2 mg/kg NT4/5 subcutanouesly (s.c.).
Baseline non-fasted blood glucose level was measured by One-Touch Ultra glucose meter from the tail bleed.

[5] = system: NONcNZO-10 polygenic obese mice; assay: Pegylated NT-4/5 cysteine mutant on body weight, food intake, glucose, triglyceride in NONcNZO-10 mice (Example 6); format: in vivo
Method: Test animals: 30 male NONcNZO-10 polygenic obese mice at 10 weeks of age weighing in the range of 27-32 g were used in this study.
Administration of NT-4/5 and pegylated NT-4/5: The mice were divided into 4 groups of equivalent body weight distribution (7-8 mice per group). Each group received on the first day (day 1) of the study one and the only dose of either vehicle alone, 1 mg/kg of NT-4/5 or 1 mg/kg of PEG-NT4-S50C, respectively. A final group received a daily subcutaneous dose of 1 mg/kg of NT-4/5 from day 1 to day 5, then from day 7 to day 9. On day 9 after the treatment started, blood samples were collected to determine serum glucose and triglyceride levels. Body weight and food intake were monitored 5 days a week through out the entire study.

[6] = system: db/db mice; assay: Long term glucose control in db/db mice (Example 14); format: in vivo
Method: Db/db mice maintained as described in Example 1 were divided into five groups (groups 1-5). Group 1 were administered with vehicle (PBS). Group 2, group 3, group 4, group 5 were each administered with NT-4/5 at the doses of 2 mg/kg, 5 mg/kg, 10 mg/kg, and 20 mg/kg, respectively. Both the vehicle and NT-4/5 were administered to each group of the mice subcutaneously once daily from day 1 to day 26. One day before beginning the treatment (day 0), blood samples were collected from the mice as described previously for the determination of baseline levels of serum biomarkers (glucose and insulin). On day 45, HbA1c level was measured. Glucose tolerance test was performed on day 54 (28 days after the last dose of NT-4/5 treatment). Intraperitoneal (IP) glucose tolerance test was conducted by fasting the mice overnight (16 hours) before giving them an IP injection of a load of 2 grams of glucose/kg of body weight. Serum glucose and insulin were also measured.

[7] = lean male mice, 1, 2, 5 and 10 mg/kg s.c. daily, dose dependent
[8] = 2 or 10 mg/kg s.c. daily, dose dependent
[9] = single subcutaneous injection of 1 mg/kg, day 9

## CN(CCOc1ccc(CC2SC(=O)NC2=O)cc1)c1ccccn1 (stereo not shown) [Rosiglitazone, reference compound]
[1]
  Gastrocnemius weight: 0.074 g
  Heart weight: 0.114 g

B1: NT-4/5: mature human neurotrophin-4/5 (SEQ ID NO:1), obtained from Genentech or produced in E. coli (protein, listed as Homo sapiens)
chain: GVSETAPASRRGELAVCDAVSGWVTDRRTAVDLRGREVEVLGEVPAAGGSPLRQYFFETRCKADNAEEGGPGAGGGGCRGVDRRHWVSECKAKQSYVRALTADAQGRVGWRWIRIDTACVCTLLSRTGRA
[2]; 5 mg/kg
  weight loss as compared to the vehicle control group: about 8%
[2]; 10 mg/kg
  weight loss as compared to the vehicle control group: about 11%
[2]; [7]
  blood triglyceride: significantly reduced blood triglyceride
  body weight: significantly reduced the body weight
[2]; lean male mice, 1, 5 and 10 mg/kg s.c. daily, dose dependent
  food intake: significantly reduced food intake
[2]; lean male mice, 2, 5 and 10 mg/kg s.c. daily, dose dependent
  nonfasting blood glucose: significantly reduced nonfasting blood glucose
[3]; [8]
  body weight: reduced body weight
  food intake: reduced
[3]; 30 days after the treatment was terminated
  rebound hyperphagia or rebound body weight gain: No rebound hyperphagia or rebound body weight gain/overshoot was observed
[4]
  body weight: small, but statistically insignificant reduction in body weight
  food intake: significantly reduced food intake on day 8 and day 10
  non-fasted glucose level: reduced non-fasted glucose level only on day 9, but not on day 4
[5]; daily dose of 1 mg/kg, on average, P<0.01
  triglyderide level reduction: about 50%
[5]; daily dose of 1 mg/kg, on average, P<0.05
  blood glucose level reduction: about 50%
[5]; daily injection of 1 mg/kg
  Daily food intake: without affecting daily food intake
  body weight: significantly reduced body weight
[5]; [9]
  blood glucose level: did not significantly reduce
  triglyceride level: did not significantly reduce
[6]; 10 mg/kg/d, day 6, P<0.05
  serum insulin levels: significant reduction
[6]; 20 mg/kg/d, day 6 and day 14, P<0.05
  serum insulin levels: significant reduction
[6]; all treatment groups, remained low until day 29
  non-fasting serum glucose level reduction: more than 50%
[6]; day 45 (15 days post-dose), 2, 5, 10 and 20 mg/kg s.c. daily day 1 to 26
  HbA1c levels versus vehicle: significantly lower than the vehicle group
[6]; day 54, 28 days after the last dose
  glucose tolerance: significantly improved glucose tolerance
